What was measured:
Assay in all cases: Kinase Profiling Assay
Format in all cases: biochemical
Settings in all cases: 100 μM
ARK5(h) = target: T1, ARK5(h) (Homo sapiens, UniProt O60285)
T1 sequence (O60285 1-661): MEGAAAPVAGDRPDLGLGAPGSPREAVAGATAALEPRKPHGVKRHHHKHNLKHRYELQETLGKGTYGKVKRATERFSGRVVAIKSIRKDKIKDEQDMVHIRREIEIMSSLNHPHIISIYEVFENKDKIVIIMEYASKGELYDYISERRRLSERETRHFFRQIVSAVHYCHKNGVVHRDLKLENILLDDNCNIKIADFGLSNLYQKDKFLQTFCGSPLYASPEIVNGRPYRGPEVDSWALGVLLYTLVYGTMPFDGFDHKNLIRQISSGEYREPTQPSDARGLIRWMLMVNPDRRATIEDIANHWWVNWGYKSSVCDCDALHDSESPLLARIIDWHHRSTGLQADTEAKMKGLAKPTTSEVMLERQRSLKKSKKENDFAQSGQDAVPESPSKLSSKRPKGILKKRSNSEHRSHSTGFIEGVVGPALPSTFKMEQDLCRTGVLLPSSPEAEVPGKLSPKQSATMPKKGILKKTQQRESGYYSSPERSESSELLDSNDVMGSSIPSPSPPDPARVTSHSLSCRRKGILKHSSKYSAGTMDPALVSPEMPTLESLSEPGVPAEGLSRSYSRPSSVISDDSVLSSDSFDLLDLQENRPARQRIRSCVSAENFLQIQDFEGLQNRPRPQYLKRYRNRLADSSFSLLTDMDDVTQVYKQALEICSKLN

cKit(D816V)(h) = cKit(D816V)(h) (Homo sapiens, UniProt P10721, D816V)
GSK3β(h) = GSK3β(h) (Homo sapiens, UniProt P49841)
ACK1(h) = ACK1(h) (Homo sapiens, UniProt Q07912)
FGFR1(h) = FGFR1(h) (Homo sapiens, UniProt P11362)
CaMKIδ(h) = CaMKIδ(h) (Homo sapiens, UniProt Q8IU85)
PRAK(h) = target: T2, PRAK(h) (Homo sapiens, UniProt Q8IW41)
T2 sequence (Q8IW41 1-473): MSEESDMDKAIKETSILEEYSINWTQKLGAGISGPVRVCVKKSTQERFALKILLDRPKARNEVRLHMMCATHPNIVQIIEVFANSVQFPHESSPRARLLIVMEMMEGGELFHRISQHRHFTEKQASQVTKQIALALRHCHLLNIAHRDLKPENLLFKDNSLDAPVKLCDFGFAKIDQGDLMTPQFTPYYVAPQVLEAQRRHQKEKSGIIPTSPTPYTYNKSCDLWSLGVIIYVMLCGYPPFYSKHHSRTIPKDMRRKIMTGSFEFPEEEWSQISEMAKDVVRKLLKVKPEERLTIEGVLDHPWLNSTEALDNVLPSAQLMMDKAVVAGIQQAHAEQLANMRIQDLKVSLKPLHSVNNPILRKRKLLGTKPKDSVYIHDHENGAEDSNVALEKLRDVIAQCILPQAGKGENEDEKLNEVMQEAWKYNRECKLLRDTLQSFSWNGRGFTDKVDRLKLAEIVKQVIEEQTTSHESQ

CDK2/cyclinE(h) = CDK2/cyclinE(h) (Homo sapiens, UniProt P24941)
TAO1(h) = target: T3, TAO1(h) (Homo sapiens, UniProt Q7L7X3)
T3 sequence (Q7L7X3 1-1001): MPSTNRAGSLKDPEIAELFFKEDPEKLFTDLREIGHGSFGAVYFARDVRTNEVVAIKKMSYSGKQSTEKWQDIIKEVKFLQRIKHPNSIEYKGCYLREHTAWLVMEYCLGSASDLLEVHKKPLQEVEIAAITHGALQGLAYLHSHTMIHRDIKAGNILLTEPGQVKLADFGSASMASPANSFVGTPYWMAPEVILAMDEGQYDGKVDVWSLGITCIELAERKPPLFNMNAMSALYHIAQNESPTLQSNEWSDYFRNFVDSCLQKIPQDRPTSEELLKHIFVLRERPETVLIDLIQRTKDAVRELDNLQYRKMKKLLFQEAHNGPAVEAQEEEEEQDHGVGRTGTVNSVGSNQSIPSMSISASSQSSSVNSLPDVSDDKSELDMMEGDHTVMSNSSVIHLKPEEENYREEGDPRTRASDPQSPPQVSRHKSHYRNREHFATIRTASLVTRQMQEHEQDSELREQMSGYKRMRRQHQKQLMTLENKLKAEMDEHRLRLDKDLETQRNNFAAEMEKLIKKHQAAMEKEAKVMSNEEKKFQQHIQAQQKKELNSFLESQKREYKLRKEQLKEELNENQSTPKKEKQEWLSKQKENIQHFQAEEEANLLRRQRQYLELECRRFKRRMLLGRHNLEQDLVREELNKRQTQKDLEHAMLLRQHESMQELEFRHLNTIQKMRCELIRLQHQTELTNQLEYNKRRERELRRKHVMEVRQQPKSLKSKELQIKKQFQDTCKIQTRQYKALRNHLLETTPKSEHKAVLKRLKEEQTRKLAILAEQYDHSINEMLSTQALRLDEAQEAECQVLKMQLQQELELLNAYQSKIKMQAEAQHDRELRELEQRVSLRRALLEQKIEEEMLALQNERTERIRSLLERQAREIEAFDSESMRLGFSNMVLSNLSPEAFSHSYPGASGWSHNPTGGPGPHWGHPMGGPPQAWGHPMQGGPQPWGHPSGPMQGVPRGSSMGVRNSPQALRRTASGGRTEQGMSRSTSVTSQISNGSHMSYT

FGFR1(h), sequence (P11362 22-822): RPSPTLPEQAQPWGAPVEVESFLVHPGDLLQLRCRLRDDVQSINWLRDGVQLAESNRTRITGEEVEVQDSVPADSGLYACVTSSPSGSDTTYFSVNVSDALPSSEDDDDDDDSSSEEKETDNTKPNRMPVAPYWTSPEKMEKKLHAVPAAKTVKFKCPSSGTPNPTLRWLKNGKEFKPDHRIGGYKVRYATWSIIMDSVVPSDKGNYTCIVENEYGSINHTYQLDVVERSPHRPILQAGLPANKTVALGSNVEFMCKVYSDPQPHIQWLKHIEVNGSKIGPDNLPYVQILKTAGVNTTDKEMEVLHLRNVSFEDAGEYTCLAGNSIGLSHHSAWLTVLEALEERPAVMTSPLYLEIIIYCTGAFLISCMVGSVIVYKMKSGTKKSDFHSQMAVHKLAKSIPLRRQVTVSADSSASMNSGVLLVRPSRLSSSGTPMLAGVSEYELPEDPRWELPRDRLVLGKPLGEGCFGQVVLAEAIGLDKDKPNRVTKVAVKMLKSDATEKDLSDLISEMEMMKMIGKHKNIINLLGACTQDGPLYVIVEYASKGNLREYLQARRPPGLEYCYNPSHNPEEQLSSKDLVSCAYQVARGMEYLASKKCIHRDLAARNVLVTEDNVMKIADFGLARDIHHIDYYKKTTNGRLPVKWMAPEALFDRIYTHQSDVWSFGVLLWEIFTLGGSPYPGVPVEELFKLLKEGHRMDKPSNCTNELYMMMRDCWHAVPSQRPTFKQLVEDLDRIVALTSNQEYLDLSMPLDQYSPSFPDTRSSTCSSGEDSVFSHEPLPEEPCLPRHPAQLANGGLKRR
GSK3β(h), sequence (P49841 whole entry): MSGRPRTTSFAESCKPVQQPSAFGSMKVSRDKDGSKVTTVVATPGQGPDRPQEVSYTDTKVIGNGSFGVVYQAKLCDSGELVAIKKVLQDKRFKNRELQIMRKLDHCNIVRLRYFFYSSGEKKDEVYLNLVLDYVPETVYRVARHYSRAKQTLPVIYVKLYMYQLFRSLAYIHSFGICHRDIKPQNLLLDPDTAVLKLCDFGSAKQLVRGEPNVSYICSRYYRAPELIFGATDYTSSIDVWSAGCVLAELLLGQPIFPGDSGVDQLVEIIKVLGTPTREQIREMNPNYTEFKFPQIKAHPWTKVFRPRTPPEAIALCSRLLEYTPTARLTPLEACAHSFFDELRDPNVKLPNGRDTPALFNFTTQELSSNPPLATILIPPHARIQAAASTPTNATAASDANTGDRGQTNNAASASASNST
ACK1(h), sequence (Q07912 whole entry): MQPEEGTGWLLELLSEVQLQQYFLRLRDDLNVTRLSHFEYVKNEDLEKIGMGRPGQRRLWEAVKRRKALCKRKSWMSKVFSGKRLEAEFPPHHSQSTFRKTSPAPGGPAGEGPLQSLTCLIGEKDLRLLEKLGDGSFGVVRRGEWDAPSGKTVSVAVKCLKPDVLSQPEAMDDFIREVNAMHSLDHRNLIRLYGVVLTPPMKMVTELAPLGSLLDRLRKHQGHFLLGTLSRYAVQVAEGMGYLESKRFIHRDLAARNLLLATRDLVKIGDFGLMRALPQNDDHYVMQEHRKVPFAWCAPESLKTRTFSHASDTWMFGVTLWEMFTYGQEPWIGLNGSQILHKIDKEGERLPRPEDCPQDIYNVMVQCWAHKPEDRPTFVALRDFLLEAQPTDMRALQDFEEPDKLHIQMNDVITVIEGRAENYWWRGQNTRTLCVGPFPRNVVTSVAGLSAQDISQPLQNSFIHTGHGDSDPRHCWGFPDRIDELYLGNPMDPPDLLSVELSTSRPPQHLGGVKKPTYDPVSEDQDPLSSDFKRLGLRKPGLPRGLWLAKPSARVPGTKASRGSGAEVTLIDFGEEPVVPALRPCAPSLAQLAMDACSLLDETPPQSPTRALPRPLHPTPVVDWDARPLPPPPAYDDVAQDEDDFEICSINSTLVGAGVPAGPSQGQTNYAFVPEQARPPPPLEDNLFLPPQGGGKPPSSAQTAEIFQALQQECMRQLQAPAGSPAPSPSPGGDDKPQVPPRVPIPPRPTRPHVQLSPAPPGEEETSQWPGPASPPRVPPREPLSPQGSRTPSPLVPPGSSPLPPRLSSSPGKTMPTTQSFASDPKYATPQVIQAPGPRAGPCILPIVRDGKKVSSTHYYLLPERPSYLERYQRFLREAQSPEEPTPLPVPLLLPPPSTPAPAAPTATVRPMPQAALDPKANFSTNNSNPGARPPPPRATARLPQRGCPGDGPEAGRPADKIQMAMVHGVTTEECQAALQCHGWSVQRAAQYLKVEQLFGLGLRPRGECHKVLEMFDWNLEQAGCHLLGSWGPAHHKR
CaMKIδ(h), sequence (Q8IU85 whole entry): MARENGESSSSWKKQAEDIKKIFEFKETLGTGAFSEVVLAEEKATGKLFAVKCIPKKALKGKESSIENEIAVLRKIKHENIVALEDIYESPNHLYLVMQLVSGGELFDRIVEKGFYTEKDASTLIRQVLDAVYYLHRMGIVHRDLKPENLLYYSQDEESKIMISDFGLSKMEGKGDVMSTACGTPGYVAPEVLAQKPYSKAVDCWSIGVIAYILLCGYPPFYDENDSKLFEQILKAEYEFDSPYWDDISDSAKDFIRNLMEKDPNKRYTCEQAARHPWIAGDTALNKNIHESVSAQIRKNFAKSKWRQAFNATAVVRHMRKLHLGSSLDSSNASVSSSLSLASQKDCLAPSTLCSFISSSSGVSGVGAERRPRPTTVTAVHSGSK

| Sequence | % activity (ARK5(h)) [%] | % activity (cKit(D816V)(h)) [%] | % activity (GSK3β(h)) [%] | % activity (ACK1(h)) [%] | % activity (FGFR1(h)) [%] | % activity (CaMKIδ(h)) [%] | % activity (PRAK(h)) [%] | % activity (CDK2/cyclinE(h)) [%] | % activity (TAO1(h)) [%] |
| --- | --- | --- | --- | --- | --- | --- | --- | --- | --- |
| YARAAARQARAKALNRQLGVA [MMI-0200] | 93 | 118 | 132 | 97 | 97 | 47 |  |  |  |
| KAFAKLAARLYRKALARQLGVAA [MMI-0400] | 69 | 35 | 202 | 95 | 59 | 17 | 118 | 83 | 73 |
| HRRIKAWLKKIKALARQLGVAA [MMI-0500] | 20 | 30 | 238 | 64 | 18 | 0 | 95 | 19 | 24 |
| FAKLAARLYRKALARQLGVAA [MMI-0300] | 78 | 60 | 205 |  | 55 | 10 | 128 | 94 | 82 |
